Data as given in the supplement of paper PMC10065799, “High-throughput profiling of sequence recognition by tyrosine kinases and SH2 domains using bacterial peptide display” (eLife, 2023).

Columns and labels:
[1] = system: AncSZ; experiment: phosphorylation enrichment, bacterial display (enrichment ratio); higher = better substrate or ligand; peptides without Tyr show the background
[2] = biological target: EPHB1 (UniProt P54762); experiment: as above
[3] = biological target: EPHB2 (UniProt P29323); experiment: as above
EPHB2, sequence (P29323 whole entry, looked up): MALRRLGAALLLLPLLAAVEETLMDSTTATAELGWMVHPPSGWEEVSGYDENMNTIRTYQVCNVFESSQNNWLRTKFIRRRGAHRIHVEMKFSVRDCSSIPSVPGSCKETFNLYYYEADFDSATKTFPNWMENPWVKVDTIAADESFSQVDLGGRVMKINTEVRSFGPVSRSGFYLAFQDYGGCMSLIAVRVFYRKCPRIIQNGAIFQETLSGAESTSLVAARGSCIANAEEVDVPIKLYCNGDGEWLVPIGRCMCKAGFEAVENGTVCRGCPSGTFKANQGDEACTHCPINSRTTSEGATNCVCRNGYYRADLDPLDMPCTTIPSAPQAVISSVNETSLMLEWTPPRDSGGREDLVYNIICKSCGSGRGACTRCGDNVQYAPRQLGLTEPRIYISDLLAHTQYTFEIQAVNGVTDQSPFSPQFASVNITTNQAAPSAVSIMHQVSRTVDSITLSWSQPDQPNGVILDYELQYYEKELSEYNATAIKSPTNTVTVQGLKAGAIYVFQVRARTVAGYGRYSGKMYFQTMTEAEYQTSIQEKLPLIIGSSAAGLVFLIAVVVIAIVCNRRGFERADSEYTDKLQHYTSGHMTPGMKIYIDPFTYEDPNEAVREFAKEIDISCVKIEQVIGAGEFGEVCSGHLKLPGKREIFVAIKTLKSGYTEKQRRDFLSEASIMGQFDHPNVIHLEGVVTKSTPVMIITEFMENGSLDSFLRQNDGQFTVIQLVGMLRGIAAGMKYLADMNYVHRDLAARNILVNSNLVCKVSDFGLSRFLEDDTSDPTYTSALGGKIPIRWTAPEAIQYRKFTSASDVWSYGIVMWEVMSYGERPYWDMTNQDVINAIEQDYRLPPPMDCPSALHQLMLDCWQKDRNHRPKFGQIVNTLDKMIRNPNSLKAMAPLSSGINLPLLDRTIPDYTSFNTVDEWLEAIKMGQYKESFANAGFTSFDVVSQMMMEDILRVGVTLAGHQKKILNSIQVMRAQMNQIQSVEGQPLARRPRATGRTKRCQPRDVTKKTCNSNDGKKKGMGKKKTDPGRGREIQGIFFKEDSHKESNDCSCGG

[4] = biological target: FGFR1 (UniProt P11362); experiment: as above
[5] = biological target: FGFR3 (UniProt P22607); experiment: as above
[6] = system: Fer (mouse); experiment: as above
[7] = biological target: Fes (UniProt P07332); experiment: as above
Fes, sequence (P07332 whole entry, looked up): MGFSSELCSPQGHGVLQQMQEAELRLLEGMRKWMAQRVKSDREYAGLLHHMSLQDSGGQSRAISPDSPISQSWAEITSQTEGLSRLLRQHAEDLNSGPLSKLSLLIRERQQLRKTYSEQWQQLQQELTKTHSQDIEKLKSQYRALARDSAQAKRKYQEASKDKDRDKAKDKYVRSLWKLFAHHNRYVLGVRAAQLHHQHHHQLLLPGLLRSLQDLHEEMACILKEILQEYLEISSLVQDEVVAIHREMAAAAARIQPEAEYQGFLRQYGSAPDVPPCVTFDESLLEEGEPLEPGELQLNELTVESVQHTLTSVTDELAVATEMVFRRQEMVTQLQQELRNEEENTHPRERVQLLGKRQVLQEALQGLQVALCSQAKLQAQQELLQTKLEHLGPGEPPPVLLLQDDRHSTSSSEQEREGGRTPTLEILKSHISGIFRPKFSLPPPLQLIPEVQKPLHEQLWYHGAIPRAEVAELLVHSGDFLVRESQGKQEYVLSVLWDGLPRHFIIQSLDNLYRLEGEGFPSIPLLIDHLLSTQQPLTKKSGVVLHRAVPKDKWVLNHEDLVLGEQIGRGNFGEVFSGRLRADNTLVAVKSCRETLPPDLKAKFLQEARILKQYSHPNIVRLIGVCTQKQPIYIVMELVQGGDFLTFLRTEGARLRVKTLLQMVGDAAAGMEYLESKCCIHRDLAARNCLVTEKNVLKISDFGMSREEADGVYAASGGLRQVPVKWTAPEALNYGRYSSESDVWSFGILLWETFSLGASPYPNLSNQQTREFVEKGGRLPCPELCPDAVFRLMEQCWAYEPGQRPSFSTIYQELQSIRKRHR

[8] = biological target: Fyn (UniProt P06241); experiment: as above
Fyn, sequence (P06241 whole entry, looked up): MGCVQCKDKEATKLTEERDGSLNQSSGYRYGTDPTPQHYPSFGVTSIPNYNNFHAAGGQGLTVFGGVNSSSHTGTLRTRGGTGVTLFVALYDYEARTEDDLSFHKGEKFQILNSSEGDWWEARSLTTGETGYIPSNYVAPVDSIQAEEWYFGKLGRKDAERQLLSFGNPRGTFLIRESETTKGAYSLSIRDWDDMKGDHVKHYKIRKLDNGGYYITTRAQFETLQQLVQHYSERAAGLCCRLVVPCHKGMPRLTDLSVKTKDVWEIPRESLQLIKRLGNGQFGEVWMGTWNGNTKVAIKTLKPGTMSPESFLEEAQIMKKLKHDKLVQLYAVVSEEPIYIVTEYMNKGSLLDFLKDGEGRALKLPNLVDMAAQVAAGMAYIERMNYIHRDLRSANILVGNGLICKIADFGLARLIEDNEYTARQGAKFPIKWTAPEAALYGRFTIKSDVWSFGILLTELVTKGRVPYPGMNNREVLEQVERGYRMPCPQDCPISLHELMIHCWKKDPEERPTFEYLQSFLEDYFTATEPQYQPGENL

[9] = biological target: Hck (UniProt P08631); experiment: as above
Hck, sequence (P08631 whole entry, looked up): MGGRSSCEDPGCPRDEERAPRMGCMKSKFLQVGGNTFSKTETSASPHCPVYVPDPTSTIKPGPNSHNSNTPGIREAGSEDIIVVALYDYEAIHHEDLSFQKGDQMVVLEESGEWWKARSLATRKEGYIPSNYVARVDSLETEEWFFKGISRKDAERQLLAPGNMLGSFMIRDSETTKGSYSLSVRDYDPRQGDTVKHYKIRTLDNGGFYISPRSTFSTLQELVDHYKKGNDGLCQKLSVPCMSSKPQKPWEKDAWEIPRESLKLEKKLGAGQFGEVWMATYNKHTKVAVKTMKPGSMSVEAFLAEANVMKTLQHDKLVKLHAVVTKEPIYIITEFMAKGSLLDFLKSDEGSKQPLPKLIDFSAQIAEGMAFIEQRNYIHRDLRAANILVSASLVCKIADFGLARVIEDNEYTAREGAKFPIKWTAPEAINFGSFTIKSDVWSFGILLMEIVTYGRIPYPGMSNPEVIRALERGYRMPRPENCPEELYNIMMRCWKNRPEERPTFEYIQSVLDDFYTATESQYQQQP

[10] = biological target: Jak2 (UniProt O60674); experiment: as above
Jak2, sequence (O60674 whole entry, looked up): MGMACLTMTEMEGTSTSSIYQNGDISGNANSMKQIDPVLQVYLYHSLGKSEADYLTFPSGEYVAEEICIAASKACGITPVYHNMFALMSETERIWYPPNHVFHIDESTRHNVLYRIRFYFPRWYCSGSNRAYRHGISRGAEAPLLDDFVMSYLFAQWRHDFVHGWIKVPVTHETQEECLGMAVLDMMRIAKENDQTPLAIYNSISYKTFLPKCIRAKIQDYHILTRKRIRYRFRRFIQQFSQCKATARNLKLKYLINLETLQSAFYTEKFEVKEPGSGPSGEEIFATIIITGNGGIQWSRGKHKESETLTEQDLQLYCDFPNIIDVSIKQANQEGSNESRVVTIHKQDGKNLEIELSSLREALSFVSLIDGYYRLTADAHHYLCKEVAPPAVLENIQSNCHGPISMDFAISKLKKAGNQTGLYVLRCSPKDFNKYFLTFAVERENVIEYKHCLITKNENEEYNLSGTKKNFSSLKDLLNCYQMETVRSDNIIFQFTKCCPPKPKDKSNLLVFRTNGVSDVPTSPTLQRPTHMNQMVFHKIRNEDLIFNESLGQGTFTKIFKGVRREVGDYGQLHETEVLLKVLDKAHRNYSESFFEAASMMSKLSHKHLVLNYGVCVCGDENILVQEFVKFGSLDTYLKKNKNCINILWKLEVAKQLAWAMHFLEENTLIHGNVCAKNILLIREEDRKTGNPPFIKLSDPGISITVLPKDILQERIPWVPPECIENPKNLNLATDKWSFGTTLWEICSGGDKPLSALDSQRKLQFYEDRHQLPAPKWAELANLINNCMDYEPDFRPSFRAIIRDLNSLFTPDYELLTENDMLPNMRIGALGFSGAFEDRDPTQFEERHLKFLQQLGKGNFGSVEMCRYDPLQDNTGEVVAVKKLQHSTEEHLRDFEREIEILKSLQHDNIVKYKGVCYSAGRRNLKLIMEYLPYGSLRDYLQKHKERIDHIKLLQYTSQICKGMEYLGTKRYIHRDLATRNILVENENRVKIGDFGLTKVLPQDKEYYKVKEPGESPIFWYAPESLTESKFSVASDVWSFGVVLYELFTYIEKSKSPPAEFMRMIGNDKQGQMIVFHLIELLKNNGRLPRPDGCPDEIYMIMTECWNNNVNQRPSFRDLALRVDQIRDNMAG

[11] = biological target: MERTK (UniProt Q12866); experiment: as above
[12] = system: c-Abl (mouse); experiment: as above
[13] = system: c-Src; experiment: as above
[14] = biological target: Grb2 SH2 (UniProt P62993); experiment: SH2 binding enrichment of the phosphorylated peptide, bacterial display (enrichment ratio); higher = better substrate or ligand; peptides without Tyr show the background
[15] = biological target: SHP2-C SH2; experiment: as above
[16] = biological target: c-Src SH2; experiment: as above
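Wherever SH2 binding enrichment of the phosphorylated peptide, bacterial display is given: peptide library displayed on the E. coli surface as eCPX fusions, selected cells deep-sequenced, score is each peptide's frequency after selection divided by its frequency in the input.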
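Wherever phosphorylation enrichment, bacterial display is given: 11-residue human phosphosite peptides and single-mutation variants displayed on the E. coli surface, counted by deep sequencing, each peptide's frequency after selection divided by its frequency in the unselected input library; frequency after pTyr selection over input frequency; kinase dosed for 20-30% of maximal phosphorylation in three min.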

EPHB1, sequence (P54762 whole entry, looked up): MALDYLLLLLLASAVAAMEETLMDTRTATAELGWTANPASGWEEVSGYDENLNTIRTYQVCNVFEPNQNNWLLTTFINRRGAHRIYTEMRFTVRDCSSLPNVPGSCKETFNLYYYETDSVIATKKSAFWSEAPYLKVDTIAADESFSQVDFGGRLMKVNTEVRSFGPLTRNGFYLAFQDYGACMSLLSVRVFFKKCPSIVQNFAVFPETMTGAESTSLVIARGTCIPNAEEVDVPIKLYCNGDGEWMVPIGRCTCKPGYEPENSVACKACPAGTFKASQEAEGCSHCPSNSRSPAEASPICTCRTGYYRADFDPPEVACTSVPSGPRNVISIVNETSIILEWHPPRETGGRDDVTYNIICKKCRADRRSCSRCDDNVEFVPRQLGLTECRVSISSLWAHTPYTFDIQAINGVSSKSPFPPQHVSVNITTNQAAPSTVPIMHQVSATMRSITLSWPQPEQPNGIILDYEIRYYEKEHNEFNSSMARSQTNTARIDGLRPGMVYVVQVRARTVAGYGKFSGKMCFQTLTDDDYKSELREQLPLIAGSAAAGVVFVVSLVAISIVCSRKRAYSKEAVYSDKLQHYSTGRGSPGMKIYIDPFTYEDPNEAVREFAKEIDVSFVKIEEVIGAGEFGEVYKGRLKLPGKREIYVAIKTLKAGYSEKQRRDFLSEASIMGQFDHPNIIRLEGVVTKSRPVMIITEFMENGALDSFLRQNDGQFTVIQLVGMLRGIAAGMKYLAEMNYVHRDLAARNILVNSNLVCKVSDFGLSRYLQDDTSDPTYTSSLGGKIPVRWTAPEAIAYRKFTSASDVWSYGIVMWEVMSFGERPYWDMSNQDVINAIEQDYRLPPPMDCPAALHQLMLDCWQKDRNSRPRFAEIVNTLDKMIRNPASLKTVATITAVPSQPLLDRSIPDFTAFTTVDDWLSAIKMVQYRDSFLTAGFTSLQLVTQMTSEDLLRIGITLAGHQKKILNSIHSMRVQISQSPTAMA

Sequence | SH2 binding enrichment [14] | SH2 binding enrichment [15] | SH2 binding enrichment [16] | phosphorylation enrichment [1] | phosphorylation enrichment [2] | phosphorylation enrichment [3] | phosphorylation enrichment [4] | phosphorylation enrichment [5] | phosphorylation enrichment [6] | phosphorylation enrichment [7] | phosphorylation enrichment [8] | phosphorylation enrichment [9] | phosphorylation enrichment [10] | phosphorylation enrichment [11] | phosphorylation enrichment [12] | phosphorylation enrichment [13]
SVGGLYRDMGA [CBX8_Y321_G317V] | 0.72 | 0.53 | 0.393 | 0.699 | 0.567 | 0.43 | 0.541 | 0.561 | 0.446 | 0.791 | 0.408 | 0.481 | 0.734 | 0.483 | 0.555 | 0.385
KIRDWYQRQRP [KRT14_Y151] | 0.84 | 0.744 | 0.523 | 0.621 | 0.405 | 0.463 | 0.415 | 0.419 | 0.45 | 0.635 | 0.4 | 0.38 | 0.553 | 0.446 | 0.637 | 0.502
PDMHSYMVRFN [GRIN2D_Y732_YF] | 0.909 | 0.548 | 0.474 | 0.991 | 0.488 | 0.69 | 0.711 | 0.807 | 0.494 | 0.931 | 0.629 | 0.641 | 1.14 | 0.651 | 0.811 | 1.15
FSPPFYHRNCM [HGD_Y334_R330S_YF] | 0.981 | 0.818 | 0.633 | 0.931 | 0.483 | 0.545 | 0.513 | 0.632 | 0.465 | 0.89 | 0.377 | 0.457 | 0.971 | 0.535 | 0.767 | 0.623
NVADHYRVYKP [ATP6V0D2_Y271_G272R] | 0.619 | 0.517 | 0.469 | 0.721 | 0.54 | 0.574 | 0.489 | 0.479 | 0.433 | 0.767 | 0.501 | 0.384 | 0.561 | 0.426 | 0.703 | 0.412
RLLRGYRQDAY [HLA-A_Y137_F133L] | 0.638 | 0.593 | 0.437 | 0.985 | 0.374 | 0.611 | 0.608 | 0.519 | 0.653 | 0.777 | 0.769 | 0.645 | 0.802 | 0.694 | 0.67 | 0.537
ESLRPYDVMDV [KCNQ2_Y562] | 0.83 | 0.558 | 12.9 | 1.03 | 0.583 | 0.683 | 0.455 | 0.665 | 0.846 | 1.14 | 0.668 | 0.602 | 0.876 | 0.437 | 0.595 | 0.719
VKANTYENYWP [GATM_Y100_K102N] | 13.2 | 1.9 | 3.55 | 0.893 | 7.05 | 7.05 | 1.17 | 0.818 | 1.2 | 0.81 | 2.59 | 1.65 | 0.994 | 2.41 | 0.801 | 3.07
CRAVKYLQMVG [AVPR2_Y117] | 0.964 | 1.24 | 0.521 | 0.711 | 0.608 | 0.44 | 0.499 | 0.574 | 0.443 | 0.739 | 0.405 | 0.504 | 0.619 | 0.379 | 0.522 | 0.401
SFGESYDNSKS [MAN1B1_Y60_N59S] | 0.928 | 0.568 | 0.437 | 0.813 | 0.474 | 0.508 | 0.493 | 0.595 | 0.433 | 0.953 | 0.466 | 0.482 | 0.939 | 0.502 | 0.747 | 0.508
SDQRRYSLIDP [CLIP2_Y972_R977P] | 0.889 | 3.82 | 15.9 | 0.683 | 0.56 | 0.567 | 0.533 | 0.64 | 0.545 | 0.719 | 0.574 | 0.466 | 0.587 | 1.3 | 0.488 | 0.383
FCRITYDIFPF [INTS13_Y67_M66T_YF] | 1.03 | 0.853 | 0.485 | 1.66 | 2.38 | 3.05 | 0.514 | 1.05 | 0.594 | 1.6 | 1.31 | 2.62 | 1.29 | 2.2 | 1.12 | 2.36
PYRSIYFSSPK [MPG_Y75] | 0.952 | 1.34 | 0.594 | 0.878 | 0.519 | 0.582 | 0.778 | 0.856 | 0.72 | 0.648 | 1.03 | 1.09 | 0.657 | 0.835 | 0.887 | 0.903

Now from value to sequence, other results behind:

SH2 binding enrichment [14] | SH2 binding enrichment [15] | SH2 binding enrichment [16] | Sequence | phosphorylation enrichment [1] | phosphorylation enrichment [2] | phosphorylation enrichment [3] | phosphorylation enrichment [4] | phosphorylation enrichment [5] | phosphorylation enrichment [6] | phosphorylation enrichment [7] | phosphorylation enrichment [8] | phosphorylation enrichment [9] | phosphorylation enrichment [10] | phosphorylation enrichment [11] | phosphorylation enrichment [12] | phosphorylation enrichment [13]
0.797 | 0.48 | 0.423 | HLQDEYDFKCK [STAT1_Y170_D165H] | 1.33 | 0.621 | 0.585 | 0.581 | 0.924 | 0.471 | 1.59 | 0.631 | 0.589 | 1.5 | 0.884 | 0.776 | 0.871
0.741 | 0.702 | 0.758 | RPSELYFSKIS [SMG1_Y2253_G2258S_YF] | 0.933 | 2 | 1.05 | 1.22 | 1.1 | 0.724 | 1.4 | 1.4 | 2.85 | 1.06 | 0.886 | 0.834 | 0.691
0.688 | 1.13 | 0.683 | AELVQYYMEHH [PTPN11_Y80] | 1.2 | 1.06 | 1.01 | 0.827 | 0.954 | 0.494 | 1.26 | 0.654 | 0.974 | 1.19 | 0.68 | 0.826 | 0.845
1.05 | 1.16 | 0.587 | DKANRYFSPNF [PTEN_Y336] | 0.583 | 0.296 | 0.301 | 0.397 | 0.461 | 0.375 | 0.521 | 0.323 | 0.402 | 0.488 | 0.374 | 0.438 | 0.362
0.732 | 0.669 | 0.586 | PTKNDYWAMPA [WWOX_Y287_L291P] | 2.02 | 18.6 | 14.4 | 20.6 | 16.3 | 0.469 | 1.03 | 0.987 | 1.82 | 2.69 | 5.26 | 1.39 | 0.952
0.913 | 0.696 | 0.4 | GDFFRSLAEVA [YWHAG_Y133_Y133S_YF] | 0.871 | 0.423 | 0.503 | 0.486 | 0.595 | 0.438 | 0.865 | 0.464 | 0.405 | 0.72 | 0.357 | 0.721 | 0.425
0.953 | 0.836 | 0.521 | LEDEVYAQKMK [TPM2_Y261] | 2.79 | 2.92 | 1.08 | 1.25 | 1.97 | 1.91 | 2.74 | 2.37 | 2.62 | 2.5 | 0.889 | 1.49 | 1.22
1.15 | 0.716 | 0.686 | PRAEWYRDDLL [MYOM2_Y317_V321L] | 1.49 | 0.692 | 0.726 | 0.591 | 0.626 | 0.502 | 1.4 | 0.612 | 0.681 | 0.952 | 0.511 | 0.798 | 0.575
0.821 | 0.84 | 1.42 | ANNQRYAFMPL [TMEM87B_Y460] | 0.588 | 0.655 | 0.591 | 0.535 | 0.566 | 0.394 | 0.696 | 0.436 | 0.393 | 0.621 | 5.61 | 0.528 | 0.485
0.887 | 0.881 | 0.39 | LHSEAYLKFIE [PBRM1_Y1610_YF] | 1.56 | 0.877 | 0.881 | 0.939 | 1.21 | 1.1 | 1.51 | 0.856 | 0.813 | 1.37 | 0.556 | 0.886 | 0.486
0.804 | 0.521 | 0.522 | NTGDDYDLYGG [PTPN11_Y63_Y62D] | 1.33 | 0.581 | 1.05 | 0.51 | 0.683 | 0.775 | 1.17 | 1.51 | 2.47 | 0.912 | 0.494 | 0.684 | 1.65
1.13 | 0.821 | 0.542 | FPKDVYVDSKD [NDUFAF4_Y69_L65P] | 0.868 | 0.38 | 0.36 | 0.588 | 0.59 | 0.367 | 0.839 | 0.409 | 0.444 | 0.769 | 0.377 | 0.543 | 0.416
0.756 | 0.723 | 2.61 | FTNRSYDLDFD [MYC_Y12_N11S_YF] | 0.978 | 0.505 | 0.58 | 0.685 | 0.708 | 0.476 | 1.13 | 0.55 | 0.64 | 0.922 | 0.422 | 0.77 | 0.499
1.14 | 1.16 | 0.873 | IFHLSYHHNCE [PDE6B_Y227_L228H_YF] | 1.15 | 0.567 | 0.635 | 0.499 | 0.694 | 0.517 | 1.18 | 0.522 | 0.478 | 0.831 | 0.381 | 0.588 | 0.455
0.751 | 0.812 | 0.728 | IINENYDYLKG [NUP98_Y1664] | 0.846 | 0.657 | 0.707 | 0.535 | 0.518 | 0.401 | 0.871 | 0.406 | 1.07 | 0.803 | 0.491 | 0.649 | 0.469
0.874 | 0.64 | 0.515 | KDDEKYLDVIR [MTM1_Y260] | 0.961 | 0.461 | 0.49 | 0.453 | 0.663 | 0.405 | 0.971 | 0.433 | 0.501 | 0.987 | 0.434 | 0.689 | 0.409
1.05 | 1.23 | 0.666 | LYYYSYLLKNH [PTEN_Y180_V175L] | 1.64 | 3.44 | 1.65 | 4.27 | 3.79 | 0.959 | 1.3 | 0.946 | 1.49 | 2.46 | 4.98 | 1.97 | 1.06
0.964 | 0.369 | 0.376 | QPDFLYDHIQP [TRRAP_Y862] | 2.58 | 5.27 | 3.31 | 0.622 | 1.45 | 12 | 1.74 | 6.9 | 9.82 | 1.21 | 7.66 | 0.928 | 5.86
0.884 | 0.657 | 0.624 | RTTIHYNFMCN [TP53_Y234_C229R_YF] | 1.33 | 0.908 | 0.808 | 0.648 | 1.11 | 0.668 | 1.46 | 0.527 | 0.54 | 1.29 | 0.609 | 2.01 | 0.514
0.979 | 0.873 | 0.634 | GLVFLYMEKNQ [PRELP_Y156] | 0.932 | 0.607 | 0.523 | 0.339 | 0.719 | 0.635 | 1.18 | 0.304 | 0.337 | 1.17 | 0.262 | 0.854 | 0.37
